The DeepSol protein solubility set

Assay: soluble on expression in E. coli; label from the status in PepcDB or PDB records

Row | Sequence | soluble on expression in E. coli
1 | MHRRAVVLFTAALLLGLGLPRASAESRQDEPTSLITSPGYTRTTASPGPGLTLFTYQNPDDDRVVHVLRADPDAAPLTVESTAGTSGARAEKTTDMLKSTTGYAPRWPHAGLNGGFWYRQGDTLAFMGISVQEGVVQSASCSAAGRGEAALIQHGRPYIGDFTTHLAVTAPGAAPMPLDGVNRHPGWMTGCAQGSGATADRSIGGGVFADASEIIAFTSRFKAPTPVPDADARFTEDDDPGAEAVVAADGTVLSLNPNGRGGVTVPTGGRVLQGTGTGADWLRAHATPGTDLAFEERLHDERFGDDIPLDSSVDVVNGHYPLVHNAQYAYTGQNTAVDPRSAIAVDGPGRTLFVTATGKSGRNGVTLDEFARILLDLGAVDGLNMDGGGSTTLVVEQAVVNRPSDSTGERPVADSLYIGHGGYGHYADLEHHHHHH | not soluble
2 | SGGGGGILEKLGDICFSLRYVPTAGKLTVVILEAKNLKKMDVGGLSDPYVKIHLMQNGKRLKKKKTTIKKNTLNPYYNESFSFEVPFEQIQKVQVVVTVLDYDKIGKNDAIGKVFVGYNSTGAELRHWSDMLANPRRPIAQWHTLQVEEEVDAMLAVKK | soluble
3 | MGSDKIHHHHHHMYVAVKGGEKAIRAAHALQEQKRRGDGRLPELSVEQIGDQLSLAVDRVMTEGGIADRELAALALKQASGDNIEAIFLLRAYRTTLPRLAVSEPINTAEMRLERRISAVYKDIPGGQLLGPTYDYTHRLLDFTLLANGEAPSVQQADGEAEPTPHVFSLLTQQGLAKTEEDRGTPPDDITRTPPVYPCSRSSRLQQLMRGDEGYLLALAYSTQRGYGRNHPFAGEIRSGYVQVEIVPEELGFSVNIGELLLTECEMVNGFVAPQEEPPHFTRGYGLTFGMSERKAMAMALVDRALQAPDYDEEIAGPAQDEEFVLAHADNVEAAGFVSHLKLPHYVDFQAELALLKRLQRENERG | not soluble
4 | MTVGVGGSTPAQALERLRNMMDGAQPIGLASYRARIAAAQAWMGEHGIAAAYLHAGSNLRYFSGVQWHPSERLVGALLPAEGALEYLAPAFEEGTVRDFQVVDGAIHTWEEHQDPYRLLLDRLEALGVGERSTVALCPSLPFGMFERLRQQAPGRNFVSAAPLIDQGRMRKSAEELALMQRAKDMTLEVQKAAASILREGISTTEVAEFIHQAHRKVGAPGSTFCIVLFGAASAFPHGVKHAQVLKDGDMVLIDTGCQVHGYQSDITRSYVFGTPSARQREFWGMERDAQLAAFEAARLGQPCEAVDAAARRSLEANGLGPDYRLPGLPHRTGHGIGMDVHEGPYLVRGDRTPLDVGMCFSNEPMICVPGEFGIRLEDHFYMTKEGPRWFT | not soluble
5 | MSLIISISNLSPKSNRSQTKDSQISKWSYFSDCILRSTGFPAEWIEKLCFHKTTTMFDLCYRTEQSLNELVERLKTLEQTCHIPSNARQDWQRIRKLVGKRKKVTDEFIHLMEQKGFDQSLTQEIESYERKRRLQEKNWTKARESFEAELAEKQLFLQEIYKNPRLQEAIFQQSPSMYKNAVVPYVHSSLQKRNTNIKRIERQLISYLQRLCTKNETTSFFGPIQYGVLTSEQQDIEYNFNQKETERRAFMPYWSIKVLAAQMKECDVFFPYLNVKLSYQYTKTGDSIHSPILEKMVKFPKPYADIIKHLTYENQSIEQLAKKLSQPVAWLAKKLRLLEKKRLILIEIPLSITEPDSLNELRSWILKIKDVEHPDLSLWQERLEWLWKVKQAYPYMTLGQKQELFHKLESTFTEWTGEQPRRLGGEIYADRNLLYEECHGPLNNIKIGGSIKHVLKQDVPKWLSICAKHGEQRRKQEQALAQEIFKMMYPNEDSVPFLKFVHDLSNHPDVHTWEKRWQSIKTEIEEAITHEVASNPKSVVHLSLDYQDFDRDMAWLTSPDLMIAKKDDDSYQVILGEIHDTIMVWGWALQFHPEKDRVNEQLVKKIQKSTQHLRMLNMLSSKRFKIVPFEYPGTTIQMNSFSNSPNEKIPLSQLKVTYTKEGLALTLPDHEEVFYTYNGELNTMVHSFFSLPRAVSFSIRTGESTPRLMLGDLVVQRAKWHISKQDVWSKKHTGSSIELFYEAYRFHLKESLPKEGFAKLPGQPKPVYVNFTSYFLIEMLEGLWPDGENCTFSEMLPNLSELWLSKEDQKTHTAEIRLSYFVERSEGHHHHHH | soluble
6 | MTLISPELKTQGFYASSYKGTDLIGLTKHYFREKHMKQLMLTLGIVNTYDKIKVLDAHYRAIARAAPICHAFGFHLALYDFPFKMTAEELVAFVMEKTTIGESGSYLKILYEKNHLSVSDLPKKGFPSQFGETVITTSKPDPKRKVMPVKIAEEALHNRSFLFLVGLGHKGLPKELFERGKYHLDITSKGLSLETCTAIGAVPAHLAGLMENLRCKK | not soluble
7 | MGSDKIHHHHHHMADYQQMWANLGMDLEKHDVLCEVLPEAFGGVYLTQQDRPKGMDFYDFVVSEIHGVRPAEMLQHQKEGGKVFGTFCVYVPDEVVFAAGGIAAGLCGGSQFWVSGGEKVLPANTCPLIKASVGARLDKTCPFFLIPDMYVAENTCDGKKKAWEILAGEVPMHIIDIPQMKRERDVAAFAAEIRDFIGVVEKVTGKKINAESLGEAIKLINNKRRALQRVYNARKASPVPISGKDALLVTQINFYDDPARAAQMANNLADELEQRINNGTGVFPENAPRIMISGTPMAIPNWKLHHIVESLGAAIVVEESCTGTRYFENLVDETASTLDEQIRALAERYMKTNCACFTPNSARIDDIIRLADEYKVDGIIDTNLQFCNLYSTESYLIKQVMTERNLPIIHIETDYSEQDFEQLRTRVEAFLEMLRK | not soluble
8 | MRFAVLGSGSRGNGTLVASNDTYVLVDCGFSLRETERRLARLGVAASQLSAILVTHEHADHVHGVGLLSRRYNVPVYLSSGTLRGMRKPVEVAGLLAGGESLQIGALDIDVVSVAHDALEPTQFVFSDGSRRFGLLTDLGSYCSNVLQRYQGLDALMIEANHCRDMLARGQYPVFLKQRVGCETGHLNNHQAASLVSELGWQDLQHLVLAHLSSKNNLPHLARQCFVDTLGCDPDWLQLADQDSGLDWRHIALEHHHHHH | not soluble
9 | SMANHLVKPDSRNCKRARELEPQVSDSPQVSSLGKSESSLSEASGLFYKEEALEKDLSDMSKEINLMLSTYAKILSERAAVDASYIDEIDGLFKEANIIENFLVQKREFLKQRFTVITNTLHK | soluble
10 | GSVSMSGGFLRDDHLEFALHLHRRLAEAVPDGEVIWSPYSVACALGVLAAGARATTRTELTTLLGTDPAPLLAALDRAVTDSPDLASRTVLWVSADVPVRSSFRATMHDRPDSDVRTADFRTNPEGVRATVNADIADATRGMIRELLPQGAVTPDLRAILTNALWAKARWTTPFEAHLTRAGTFRTPRGPKRVPFMHRTKTMPYATARGWRMVTLHAHDELAVDVLLPPGTNAAAVPTAPLLTALHRRSASTSVELALPRFELTQPHQLVEVLAEAGVRTLFTASADLSGISTVPLYVDTVIHQARLRVDERGAEGAAATAAMMLLAGAMPPRRTIRFSVDRPFHIVVRRRGAILFLGSIADPHDPGPAQ | soluble
11 | MLHLVLYQPEIPQNAGNVARTAAALGWPLHLIRPLGFLLSSPKLKRAGLDYWPHVDLRLHDSFAAFLEALPRGARVFAFSARGEASLYEARFREGDYLLFGPESRGLPEEVLARFPTLKIPMPGPVRSLNLAVAVGVAAYEAYRQLTGR | soluble
12 | MSNLVLSLDISTSGTGWALFKGSDLIQSGVLKHKSKSYFERGRYMASQLRLIQSRALKKYDCYFSTIAVEKNSVMGPNQQSMLKIGIVTGIILGRLIADNVVFINVSTWRKYWKFSYKDRSKKSMKLQSKIKVEQEFNKSVKDDEADAILIGSYYVNQGYLDELETHDYY | soluble
13 | MSLKNISLAMLARQIGVGVATVDRVLNERGGVSPQTTRKVLQAAREAGLKRILPEEHRFPWQIEVFLSSNDSFFFPQLAQDFAAVADSLGYRRLTLHRTFVPESQPTTLARRIARSCQQRQGIIVFGNDHPAVHDALRRCREAGVPAITLATDLPGADRLCHVGINQLQAGRTAGLMLGRMTPRPGEVLMVSGRQDYSAHRLRIQGFREVLSQRFPHLQLSDVLAGEERREQITRLVEQALCRSRNIVGIYNTGLGNTQIAEALARHRREGDVCWITHERYNTTRQQLAKGSLALTLDQNTRQHAQLAIDLMLRHLESGYQPQTYADGKVDFILYSAENVDEGHHHHHH | soluble
